In the Human Domainome abundance scans (Beltran et al. 2025):

B1: Nucleolar transcription factor 1, residues 408 to 469; numbered along this chain, P17480 (parent)
chain: KRPVSAMFIFSEEKRRQLQEERPELSESELTRLLARMWNDLSEKKKAKYKAREAALKAQSER

Variants of: B1
Test: abundance fitness (aPCA) (normalised: wild type 0, dead -1); higher = more abundant; growth selection in yeast, the domain comes from the species named
Conditions: Homo sapiens

Abundance fitness of substitutions, site by site:
S42: D 0.002 | H -0.179 | L -0.661 | Y -0.619 | P -0.081 | G -0.082 | M -0.654 | I -0.56 | T -0.078 | E -0.121 | A -0.115 | C -0.155 | V -0.427 | K -0.294 | R -0.698 | W -1.06 | Q -0.288 | N -0.147
Y49: V -0.82 | H -0.597 | E -0.643 | Q -0.756 | S -0.718 | D -0.626 | N -0.807 | L -0.577 | G -0.761 | W -0.022 | R -0.913 | T -0.798 | F -0.221 | P -0.615 | M -0.839 | K -0.861
K44: I -0.159 | C -0.126 | H -0.121 | R -0.139 | P -0.037 | T -0.023 | S 0.003 | E -0.021 | W -0.09 | V -0.034 | D 0.059 | L -0.108 | M -0.096
R36: L -0.093 | F -0.097 | I -0.101 | N -0.023 | P -0.483 | V -0.05 | H -0.321 | A -0.006 | G -0.111 | T -0.037 | E -0.084 | K -0.072 | Q -0.096 | C -0.051 | D 0.028 | W -0.182 | M -0.103
K50: E -0.017 | D -0.189 | C -0.049 | A -0.138 | F 0.002
L34: P -0.945 | K -1.27 | Q -0.525 | G -0.566 | R -0.954 | Y -0.833 | V -0.026 | F -0.296 | N -0.931 | E -0.287 | T -0.096 | W -1.01 | I -0.074 | C -0.049 | S -0.271 | A -0.192 | D -1.19
D40: S -0.107 | G -0.094 | T -0.202 | C -0.213 | L -0.105 | V -0.188 | W -0.319 | R -0.237 | E -0.058 | N -0.265 | F -0.135 | H -0.257 | A -0.143 | Q -0.036 | I -0.763 | P -0.911 | K -0.15 | M -0.044
T31: A -0.043 | K -0.086 | F -0.308 | S -0.02 | H -0.074 | Q -0.045 | G -0.116 | R -0.07 | L -0.107 | I -0.25 | D 0.005 | C -0.143 | W -0.221 | E -0.051 | Y -0.428 | M -0.133 | V -0.131 | P -0.423
K45: L -0.131 | G -0.009 | P -0.435 | D -0.052 | A -0.048 | E 0.067 | R -0.061 | S -0.023 | T -0.067 | N -0.064 | V -0.097 | W -0.232 | C -0.002 | F -0.105 | Y -0.181 | I -0.07 | M -0.039 | Q 0.014 | H -0.099
E43: D -0.367 | R -0.329 | W -0.276 | P -0.592 | G -0.231 | L -0.205 | V -0.207 | A -0.001 | S -0.213
L33: I 0.016 | K -0.154 | P -1.22 | E 0.006 | C -0.1 | M -0.023 | A -0.118 | V -0.067 | R -0.159 | D -0.149 | W -0.315 | H -0.02 | S -0.188 | Q -0.092
L30: Y -0.099 | P -1.1 | W -0.177 | K -0.103 | E -0.227 | G -0.254 | S -0.178 | R -0.108 | I -0.171 | D -0.65 | N -0.303 | F -0.327 | H -0.232 | Q -0.032 | T -0.118 | M -0.043
W38: C -0.98 | R -1.01 | A -0.892 | Y -0.151 | S -0.732 | K -0.787 | M -1.06 | D -0.456 | I -0.867 | G -0.667 | Q -0.701 | L -0.985 | P -0.737 | N -1.07 | H -0.803 | E -0.49
M37: Y -0.12 | L -0.062 | S -0.225 | R -0.147 | T -0.212 | C -0.193 | F -0.239 | G -0.32 | A -0.095 | V -0.382 | D -0.422 | K -0.296 | P -1.1 | E -0.094 | Q -0.237 | H -0.267 | I -0.235 | N -0.305
L41: V -0.345 | F -0.362 | A -0.165 | Y -0.507 | T -0.241 | Q -0.225 | G -0.932 | N -0.609 | D -0.613 | R -0.57 | P -0.846 | C -0.219 | M -0.066 | W -1.06 | S -0.228 | E -0.388 | K -0.576 | I -0.139 | H -0.8
A35: Q -0.017 | L -0.063 | C -0.194 | N -0.011 | W -0.273 | E -0.009 | D -0.035 | V -0.057 | I -0.015 | R -0.018 | F -0.176 | T 0.014 | H -0.341 | Y -0.387 | M -0.102 | S -0.063
K48: H -0.213 | R -0.047 | W -0.094 | C -0.081 | Y -0.209 | I -0.264 | V -0.101 | L -0.11 | T -0.005 | P -0.009 | N 0.029 | F -0.066 | M -0.022 | Q -0.091 | A 0.001 | G -0.07 | E 0.104 | S -0.048 | D 0.024
K46: C -0.537 | G -0.806 | P -0.772 | A -0.311 | Q -0.112 | V -0.3 | W -0.736 | E -0.708 | H -0.662 | F -0.785 | L -0.453 | R -0.069 | D -0.896 | Y -0.748 | S -0.569 | T -0.393 | M -0.336
N39: T -0.038 | L -0.122 | Y -0.075 | S -0.054 | F -0.061 | R -0.058 | M -0.071 | I -0.147 | E -0.037 | A -0.037 | W -0.203 | C -0.138 | P -0.608 | V -0.166 | Q -0.015 | D -0.021 | H -0.106 | K -0.087
A47: F -0.11 | I -0.184 | K -0.029 | D -0.291 | Y -0.122 | P -0.695 | L -0.064 | C -0.156 | N -0.297 | E -0.039 | R -0.047 | H -0.295 | T -0.138 | S -0.046 | Q -0.005 | G -0.098
R32: L -0.018 | D -0.058 | F -0.188 | T -0.007 | G -0.085 | E -0.07 | P -0.116 | W -0.136 | S 0.022 | M -0.105 | K 0.021 | I -0.007 | H 0.023 | A -0.033 | Y -0.157
